Test results taken from article PMC12102759 (2025).

B1: MXI1 peptide 6-21 (Max-interacting protein 1), 16-mer library wild type / SIN3A PAH2 (SIN3A PAH domain, residues 295-383) (parent complex)
chain 1: MINVQRLLEAAEFLER
chain 2: SLQNNQPVEFNHAINYVNKIKNRFQGQPDIYKAFLEILHTYQKEQRNAKEAGGNYTPALTEQEVYAQVARLFKNQEDLLSEFGQFLPDA

Variants of: B1
Assay: proteomic peptide phage display deep mutational scan (ProP-PD DMS): M13 P8 16-mer library selected against immobilised GST-tagged bait for four days (rounds), NGS of the eluted pools per day and pseudo-replica; bait immobilised on MaxiSorp plates (10 µg), library pre-cleared on GST, 2 h binding at 4 °C, five washes; one round per day, days 1-4; value from days 2 and 3

Variant | screen value
chain 1 N3H | 0.000207 average fractional NGS count over selection days 2 and 3 (reads of this peptide / all reads for the bait, averaged over …
chain 1 N3L | 0.0228 average fractional NGS count over selection days 2 and 3 (reads of this peptide / all reads for the bait, averaged over …
chain 1 N3T | 0.00466 average fractional NGS count over selection days 2 and 3 (reads of this peptide / all reads for the bait, averaged over …
chain 1 N3W | 0.000465 average fractional NGS count over selection days 2 and 3 (reads of this peptide / all reads for the bait, averaged over …
chain 1 N3G | 0.00333 average fractional NGS count over selection days 2 and 3 (reads of this peptide / all reads for the bait, averaged over …
chain 1 N3M | 0.0121 average fractional NGS count over selection days 2 and 3 (reads of this peptide / all reads for the bait, averaged over …
chain 1 V4Y | 0.000247 average fractional NGS count over selection days 2 and 3 (reads of this peptide / all reads for the bait, averaged over …
chain 1 V4W | 0.00027 average fractional NGS count over selection days 2 and 3 (reads of this peptide / all reads for the bait, averaged over …
chain 1 V4A | 0.000356 average fractional NGS count over selection days 2 and 3 (reads of this peptide / all reads for the bait, averaged over …
chain 1 V4H | 0.000116 average fractional NGS count over selection days 2 and 3 (reads of this peptide / all reads for the bait, averaged over …
chain 1 V4L | 0.000307 average fractional NGS count over selection days 2 and 3 (reads of this peptide / all reads for the bait, averaged over …
chain 1 L14R | 0.000773 average fractional NGS count over selection days 2 and 3 (reads of this peptide / all reads for the bait, averaged over …
chain 1 L14G | 0.000436 average fractional NGS count over selection days 2 and 3 (reads of this peptide / all reads for the bait, averaged over …
chain 1 L14K | 0.000523 average fractional NGS count over selection days 2 and 3 (reads of this peptide / all reads for the bait, averaged over …
chain 1 L14E | 0.00161 average fractional NGS count over selection days 2 and 3 (reads of this peptide / all reads for the bait, averaged over …
chain 1 L14S | 0.00955 average fractional NGS count over selection days 2 and 3 (reads of this peptide / all reads for the bait, averaged over …
chain 1 L14V | 0.000293 average fractional NGS count over selection days 2 and 3 (reads of this peptide / all reads for the bait, averaged over …
chain 1 L14D | 0.000292 average fractional NGS count over selection days 2 and 3 (reads of this peptide / all reads for the bait, averaged over …
chain 1 L14N | 0.0048 average fractional NGS count over selection days 2 and 3 (reads of this peptide / all reads for the bait, averaged over …
chain 1 L14P | 0.0014 average fractional NGS count over selection days 2 and 3 (reads of this peptide / all reads for the bait, averaged over …
chain 1 E12Q | 0.00319 average fractional NGS count over selection days 2 and 3 (reads of this peptide / all reads for the bait, averaged over …
chain 1 E12Y | 0.000478 average fractional NGS count over selection days 2 and 3 (reads of this peptide / all reads for the bait, averaged over …
chain 1 E12W | 9.8e-05 average fractional NGS count over selection days 2 and 3 (reads of this peptide / all reads for the bait, averaged over …
chain 1 E12K | 0.00174 average fractional NGS count over selection days 2 and 3 (reads of this peptide / all reads for the bait, averaged over …
chain 1 E12F | 0.0145 average fractional NGS count over selection days 2 and 3 (reads of this peptide / all reads for the bait, averaged over …

Variant | screen value
chain 1 E12R | 0.00176 average fractional NGS count over selection days 2 and 3 (reads of this peptide / all reads for the bait, averaged over …
chain 1 E12L | 0.0769 average fractional NGS count over selection days 2 and 3 (reads of this peptide / all reads for the bait, averaged over …
chain 1 E12G | 0.00105 average fractional NGS count over selection days 2 and 3 (reads of this peptide / all reads for the bait, averaged over …
chain 1 E12S | 0.000265 average fractional NGS count over selection days 2 and 3 (reads of this peptide / all reads for the bait, averaged over …
chain 1 E12N | 0.000144 average fractional NGS count over selection days 2 and 3 (reads of this peptide / all reads for the bait, averaged over …
chain 1 E12V | 0.000221 average fractional NGS count over selection days 2 and 3 (reads of this peptide / all reads for the bait, averaged over …
chain 1 M1G | 0.000229 average fractional NGS count over selection days 2 and 3 (reads of this peptide / all reads for the bait, averaged over …
chain 1 M1W | 0.00153 average fractional NGS count over selection days 2 and 3 (reads of this peptide / all reads for the bait, averaged over …
chain 1 M1V | 0.000344 average fractional NGS count over selection days 2 and 3 (reads of this peptide / all reads for the bait, averaged over …
chain 1 M1I | 0.000114 average fractional NGS count over selection days 2 and 3 (reads of this peptide / all reads for the bait, averaged over …
chain 1 R6W | 0.0159 average fractional NGS count over selection days 2 and 3 (reads of this peptide / all reads for the bait, averaged over …
chain 1 R6S | 0.00011 average fractional NGS count over selection days 2 and 3 (reads of this peptide / all reads for the bait, averaged over …
chain 1 R6Y | 0.00232 average fractional NGS count over selection days 2 and 3 (reads of this peptide / all reads for the bait, averaged over …
chain 1 R6V | 0.000218 average fractional NGS count over selection days 2 and 3 (reads of this peptide / all reads for the bait, averaged over …
chain 1 R6H | 0.00034 average fractional NGS count over selection days 2 and 3 (reads of this peptide / all reads for the bait, averaged over …
chain 1 L7F | 0.000853 average fractional NGS count over selection days 2 and 3 (reads of this peptide / all reads for the bait, averaged over …
chain 1 Q5T | 0.00207 average fractional NGS count over selection days 2 and 3 (reads of this peptide / all reads for the bait, averaged over …
chain 1 Q5M | 0.000803 average fractional NGS count over selection days 2 and 3 (reads of this peptide / all reads for the bait, averaged over …
chain 1 Q5N | 0.000576 average fractional NGS count over selection days 2 and 3 (reads of this peptide / all reads for the bait, averaged over …
chain 1 L8S | 0.000473 average fractional NGS count over selection days 2 and 3 (reads of this peptide / all reads for the bait, averaged over …
chain 1 L8M | 0.000134 average fractional NGS count over selection days 2 and 3 (reads of this peptide / all reads for the bait, averaged over …
chain 1 L8I | 0.00287 average fractional NGS count over selection days 2 and 3 (reads of this peptide / all reads for the bait, averaged over …
chain 1 L8Y | 0.000651 average fractional NGS count over selection days 2 and 3 (reads of this peptide / all reads for the bait, averaged over …
chain 1 E9V | 0.000671 average fractional NGS count over selection days 2 and 3 (reads of this peptide / all reads for the bait, averaged over …
chain 1 E9D | 0.000993 average fractional NGS count over selection days 2 and 3 (reads of this peptide / all reads for the bait, averaged over …

Variant | screen value
chain 1 E9N | 0.0151 average fractional NGS count over selection days 2 and 3 (reads of this peptide / all reads for the bait, averaged over …
chain 1 E9A | 0.000182 average fractional NGS count over selection days 2 and 3 (reads of this peptide / all reads for the bait, averaged over …
chain 1 E9Y | 0.000223 average fractional NGS count over selection days 2 and 3 (reads of this peptide / all reads for the bait, averaged over …
chain 1 E9H | 0.000122 average fractional NGS count over selection days 2 and 3 (reads of this peptide / all reads for the bait, averaged over …
chain 1 A10V | 0.000572 average fractional NGS count over selection days 2 and 3 (reads of this peptide / all reads for the bait, averaged over …
chain 1 A10G | 0.00122 average fractional NGS count over selection days 2 and 3 (reads of this peptide / all reads for the bait, averaged over …
chain 1 A10Y | 0.000126 average fractional NGS count over selection days 2 and 3 (reads of this peptide / all reads for the bait, averaged over …
chain 1 F13S | 0.000565 average fractional NGS count over selection days 2 and 3 (reads of this peptide / all reads for the bait, averaged over …
chain 1 F13N | 0.00134 average fractional NGS count over selection days 2 and 3 (reads of this peptide / all reads for the bait, averaged over …
chain 1 F13A | 0.000255 average fractional NGS count over selection days 2 and 3 (reads of this peptide / all reads for the bait, averaged over …
chain 1 F13D | 0.00238 average fractional NGS count over selection days 2 and 3 (reads of this peptide / all reads for the bait, averaged over …
chain 1 F13K | 0.00119 average fractional NGS count over selection days 2 and 3 (reads of this peptide / all reads for the bait, averaged over …
chain 1 F13E | 0.000282 average fractional NGS count over selection days 2 and 3 (reads of this peptide / all reads for the bait, averaged over …
chain 1 F13T | 0.00119 average fractional NGS count over selection days 2 and 3 (reads of this peptide / all reads for the bait, averaged over …
chain 1 I2A | 0.00266 average fractional NGS count over selection days 2 and 3 (reads of this peptide / all reads for the bait, averaged over …
chain 1 I2Y | 0.00134 average fractional NGS count over selection days 2 and 3 (reads of this peptide / all reads for the bait, averaged over …
chain 1 I2Q | 0.000479 average fractional NGS count over selection days 2 and 3 (reads of this peptide / all reads for the bait, averaged over …
chain 1 I2N | 0.00111 average fractional NGS count over selection days 2 and 3 (reads of this peptide / all reads for the bait, averaged over …
chain 1 I2H | 0.000551 average fractional NGS count over selection days 2 and 3 (reads of this peptide / all reads for the bait, averaged over …
chain 1 I2F | 0.000676 average fractional NGS count over selection days 2 and 3 (reads of this peptide / all reads for the bait, averaged over …
chain 1 I2W | 0.00792 average fractional NGS count over selection days 2 and 3 (reads of this peptide / all reads for the bait, averaged over …
chain 1 A11M | 0.00708 average fractional NGS count over selection days 2 and 3 (reads of this peptide / all reads for the bait, averaged over …
chain 1 A11F | 0.000474 average fractional NGS count over selection days 2 and 3 (reads of this peptide / all reads for the bait, averaged over …
chain 1 A11L | 0.000741 average fractional NGS count over selection days 2 and 3 (reads of this peptide / all reads for the bait, averaged over …
chain 1 A11N | 0.000651 average fractional NGS count over selection days 2 and 3 (reads of this peptide / all reads for the bait, averaged over …
